The assay addresses human coagulation factor XII (purchased, not His-tagged) (human).

B1: 1M-265Rdel-hPEPD (domain or fragment)
chain: TIQNGDMCLFDMGGEYYCFASDITCSFPANGKFTADQKAVYEAVLRSSRAVMGAMKPGVWWPDMHRLADRIHLEELAHMGILSGSVDAMVQAHLGAVFMPHGLGHFLGIDVHDVGGYPEGVERIDEPGLRSLRTARHLQPGMVLTVEPGIYFIDHLLDEALADPARASFLNREVLQRFRGFGGVRIEEDVVVTDSGIELLTCVPRTVEEIEACMAGCDKAFTPFSGPK
Consider B1, for which the FXII activation relative to hPEPD, chromogenic assay (mutant 40 and 400 nM, FXII 0.97 nM, ZnCl2-containing PBS, RT) is 50%.

(Values after publication PMC5173032.)
